Assay results taken from US20230257458A1 (SUNSHINE LAKE PHARMA, published 2023).

T1: IL-11 protein (UniProt P20809 22-199, limits assumed)
T1 construct: also called IL-11 antigen
T1 sequence (looked up): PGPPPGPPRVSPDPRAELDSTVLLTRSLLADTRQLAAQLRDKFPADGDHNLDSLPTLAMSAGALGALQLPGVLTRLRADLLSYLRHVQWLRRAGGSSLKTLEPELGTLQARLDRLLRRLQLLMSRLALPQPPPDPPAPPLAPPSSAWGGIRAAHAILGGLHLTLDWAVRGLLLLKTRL

B1: 3-15D5-3A6 (antibody, human IgG1, kappa, V domains shown)
VH: QVTLKESGPGILQPSQTLSLTCSFSGFSLSSSGMSVGWIRQPSGKGLEWLAHIWWSDDKSYNPALKSRLTISKDTSNNQVFLKIASVVTADTATYYCAREGSLGYGLDYWGQGTTLTVSS
VL: DVLMTQTPLSLPVSLGDQASISCRSSQSIVHTDGNTYLEWYLQKPGQSPKLLIYKVSNRFSGVPDRFSGSGSGTDFTLKISRVEAEDLGVYYCFQGSHVPWTFGGGTKLEIKR
B2: 3-5B2-2G4 (antibody, human IgG1, kappa, V domains shown)
VH: QIQLVQSGPELKKPGETVKISCKASGYTFTNYGMNWVKQAPGKGLKWMGWINTNTGEPTYAEEIKGRFAFSLETSASTAYLQINNLKNEDTATYFCSREGIYGMDSWGQGTSVTVSS
VL: SIVMTQTPKFLLVSAGDRVTITCKASQSVSNDVVWYRQKPGQSPKLLIYYASNRYIGVPDRFTGSGYGTDFTFTISTVQAEDLAVYFCQQDYYSPWTFGGGTKLEIKR
B3: 3-9E1-3A2 (antibody, human IgG1, kappa, V domains shown)
VH: QIQLVQSGPELKKPGETVNISCRASGDTFTNYAVNWVKQAPGKGLKWMGWIDTYTGDPTYADDLKGRFAFSLETSATTAYLQINNLKNEDTATYFCAGDTWFAYWGQGTLVTVSA
VL: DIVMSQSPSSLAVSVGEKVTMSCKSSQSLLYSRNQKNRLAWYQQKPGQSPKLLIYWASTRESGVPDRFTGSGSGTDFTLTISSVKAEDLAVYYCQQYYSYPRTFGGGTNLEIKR
B4: VH2 + VL3-scFv (scFv, V domains shown)
VH: QVQLVQSGAEVKKPGASVKVSCKASDYTFTNYWLGWVRQAPGQGLEWIGHIYPGGGYTNYNEKFKGRVTMTADTSTSTVYMELSSLRSEDTAVYFCARVRSGNDALDFWGQGTLVTVSS
VL: EIVLTQSPATLSLSPGERATLSCRASESVDEYGISFMNWFQQKPGQAPRLLIYSASNQGSGIPARFSGSGSGTDFTLTISSLEPEDFAVYFCQQSKEVPWTFGGGTKLEIK
notes: Humanized 5-20E11-5F2; CHO supernatant; Called scFv, but heavy and light vectors were co-transfected
B5: VH4 + VL2-scFv (scFv, V domains shown)
VH: QVQLVQSGAEVKKPGASVKVSCKASDYTFTNYWLGWVRQAPGHGLEWIGHIYPGGGYTNYNEKFKGRATLTADTSTSTVYMELSSLRSEDTAVYFCARVRSGNDALDFWGQGTLVTVSS
VL: EIVLTQSPATLSLSPGERATLSCRASESVDEYGISFMNWYQQKPGQAPRLLIYSASNQGSGIPARFSGSGSGTDFTLTISSLEPEDFAVYFCQQSKEVPWTFGGGTKLEIK
notes: as for B4
B6: VH2 + VL2-scFv (scFv, V domains shown)
VH: QVQLVQSGAEVKKPGASVKVSCKASDYTFTNYWLGWVRQAPGQGLEWIGHIYPGGGYTNYNEKFKGRVTMTADTSTSTVYMELSSLRSEDTAVYFCARVRSGNDALDFWGQGTLVTVSS
VL: EIVLTQSPATLSLSPGERATLSCRASESVDEYGISFMNWYQQKPGQAPRLLIYSASNQGSGIPARFSGSGSGTDFTLTISSLEPEDFAVYFCQQSKEVPWTFGGGTKLEIK
notes: as for B4
B7: VH2 + VL1-scFv (scFv, V domains shown)
VH: QVQLVQSGAEVKKPGASVKVSCKASDYTFTNYWLGWVRQAPGQGLEWIGHIYPGGGYTNYNEKFKGRVTMTADTSTSTVYMELSSLRSEDTAVYFCARVRSGNDALDFWGQGTLVTVSS
VL: EIVLTQSPATLSLSPGERATLSCRASESVDEYGISFMNWYQQKPGQAPRLLIYSASNQGSGIPARFSGSGSGTDFTLTISSLEPEDFAVYYCQQSKEVPWTFGGGTKLEIK
notes: as for B4
B8: VH4 + VL4-scFv (scFv, V domains shown)
VH: QVQLVQSGAEVKKPGASVKVSCKASDYTFTNYWLGWVRQAPGHGLEWIGHIYPGGGYTNYNEKFKGRATLTADTSTSTVYMELSSLRSEDTAVYFCARVRSGNDALDFWGQGTLVTVSS
VL: EIVLTQSPATLSLSPGERATLSCRASESVDEYGISFMNWFQQKPGQAPRLLIYSASNQGSGIPARFSGSGSGTDFTLTISSLEPEDFAMYFCQQSKEVPWTFGGGTKLEIK
notes: as for B4
B9: VH1 + VL2-scFv (scFv, V domains shown)
VH: QVQLVQSGAEVKKPGASVKVSCKASDYTFTNYWLGWVRQAPGQGLEWMGHIYPGGGYTNYNEKFKGRVTMTRDTSTSTVYMELSSLRSEDTAVYYCARVRSGNDALDFWGQGTLVTVSS
VL: EIVLTQSPATLSLSPGERATLSCRASESVDEYGISFMNWYQQKPGQAPRLLIYSASNQGSGIPARFSGSGSGTDFTLTISSLEPEDFAVYFCQQSKEVPWTFGGGTKLEIK
notes: as for B4

What follows are binders tested against T1, IL-11 protein (assay: ELISA, monoclonal hybridoma supernatant on IL-11).
Description: (§1) Cell lines with high secretion of specific antibody were selected for expanded culture and cryopreservation.

OD450	Binder
1.69	B1
1.65	B2
1.54	B3

Each binder was assayed against T1, IL-11 protein (assay: SPR (Biacore), antibody captured, 400 nM IL-11 as analyte).
Protocol: The measure method included the steps of capturing the humanized antibody at a flow rate of 10 ul/min. […] Finally the chip was regenerated with 10 mM glycine buffer.

Kd	koff	kon	Binder
11.9 nM	0.000541 s⁻¹	45600 M⁻¹ s⁻¹	B4
11.1 nM	0.000614 s⁻¹	55200 M⁻¹ s⁻¹	B5
17.8 nM	0.000812 s⁻¹	45700 M⁻¹ s⁻¹	B6
16.7 nM	0.00089 s⁻¹	53400 M⁻¹ s⁻¹	B7
10 nM	0.000481 s⁻¹	47900 M⁻¹ s⁻¹	B8
11.2 nM	0.000461 s⁻¹	41300 M⁻¹ s⁻¹	B9

The binders below were run against T1, IL-11 protein (assay: flow competition: IL-11 + antibody on IL-11R cells; lower = more blocking).
Description: as §1

FITC Mean	Binder
10900	B1
19800	B2
9070	B3
